# Measurements: patent publication US20160312197
# Legend:
# Experiment in all cases: cell_activity
# [1] = target: CCR5 ZFN SBS 8266, wild-type ZC linker (FokI) (Artificial Sequence) (UniProt P14870)
# [2] = tested on: CCR5 ZFN, L6a linker (FokI) (Artificial Sequence)
# [3] = tested on: CCR5 ZFN, L7a linker (FokI) (Artificial Sequence)
# [4] = tested on: mROSA-targeted ZFN pair, Wt/L7a linkers (Artificial Sequence); settings: Neuro2A, mock 0.4
# [5] = tested on: mROSA-targeted ZFN pair, Wt/Wt linkers (Artificial Sequence); settings: Neuro2A, mock 0.4
# [6] = tested on: rat IgM-targeted ZFN pair, ZC linkers (Artificial Sequence); settings: rat C6 cells
# [7] = tested on: rat IgM-targeted ZFN pair, one L7a linker (Artificial Sequence); settings: rat C6 cells
# [8] = no cleavage at this spacing, binding not measured
# Sequence of CCR5 ZFN, L6a linker (FokI) (Artificial Sequence) (chain, as listed by the source): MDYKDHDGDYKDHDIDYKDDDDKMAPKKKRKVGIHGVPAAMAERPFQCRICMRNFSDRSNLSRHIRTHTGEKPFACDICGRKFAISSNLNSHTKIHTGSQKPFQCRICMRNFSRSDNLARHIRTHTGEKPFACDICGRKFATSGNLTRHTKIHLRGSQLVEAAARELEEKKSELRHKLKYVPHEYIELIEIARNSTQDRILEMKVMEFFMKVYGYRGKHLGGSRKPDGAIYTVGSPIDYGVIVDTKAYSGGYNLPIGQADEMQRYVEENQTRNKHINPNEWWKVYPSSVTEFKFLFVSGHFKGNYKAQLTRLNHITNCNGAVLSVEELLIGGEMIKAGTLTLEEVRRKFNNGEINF
# Sequence of CCR5 ZFN, L7a linker (FokI) (Artificial Sequence) (chain, as listed by the source): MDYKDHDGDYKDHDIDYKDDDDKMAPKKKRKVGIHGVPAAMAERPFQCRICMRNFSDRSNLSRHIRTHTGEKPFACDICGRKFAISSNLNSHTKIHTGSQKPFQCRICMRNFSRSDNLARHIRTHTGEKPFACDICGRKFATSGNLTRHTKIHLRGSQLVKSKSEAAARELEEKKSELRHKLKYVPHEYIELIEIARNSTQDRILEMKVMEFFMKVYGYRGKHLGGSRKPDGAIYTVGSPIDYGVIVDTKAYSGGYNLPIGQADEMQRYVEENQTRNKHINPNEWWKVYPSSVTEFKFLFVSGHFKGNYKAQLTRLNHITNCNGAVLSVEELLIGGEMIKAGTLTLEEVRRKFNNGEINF
# Sequence of CCR5 ZFN SBS 8266, wild-type ZC linker (FokI) (Artificial Sequence) (P14870 other isoform, or with tags, fused parts or gaps): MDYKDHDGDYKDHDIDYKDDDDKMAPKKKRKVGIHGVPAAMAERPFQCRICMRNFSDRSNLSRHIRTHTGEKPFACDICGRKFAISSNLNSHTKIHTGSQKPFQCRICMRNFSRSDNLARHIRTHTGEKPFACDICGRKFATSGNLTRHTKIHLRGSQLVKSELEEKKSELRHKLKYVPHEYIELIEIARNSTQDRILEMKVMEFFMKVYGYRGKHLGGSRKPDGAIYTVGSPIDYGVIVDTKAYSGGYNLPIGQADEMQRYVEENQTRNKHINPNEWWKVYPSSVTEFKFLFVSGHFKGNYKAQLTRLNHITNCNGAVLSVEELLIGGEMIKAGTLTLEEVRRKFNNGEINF
substance,measurement,setting,value
"CCR5 ZFN sites, 4 bp gap",activity,"[1]; ZFN pair, average of 2",1.2 % NHEJ
same,activity,[2]; [8],0 % NHEJ
same,activity,[3]; [8],0 % NHEJ
"CCR5 ZFN sites, 5 bp gap",activity,"[1]; ZFN pair, average of 2",35 % NHEJ
same,activity,"[2]; ZFN pair, average of 2",39.3 % NHEJ
same,activity,[3]; [8],0 % NHEJ
"CCR5 ZFN sites, 6 bp gap",activity,"[1]; ZFN pair, average of 2",11.1 % NHEJ
same,activity,"[2]; ZFN pair, average of 2",25.4 % NHEJ
same,activity,"[3]; ZFN pair, average of 2",31.8 % NHEJ
"CCR5 ZFN sites, 7 bp gap",activity,[1]; [8],0 % NHEJ
same,activity,"[2]; ZFN pair, average of 2",5.1 % NHEJ
same,activity,"[3]; ZFN pair, average of 2",39.6 % NHEJ
"CCR5 ZFN sites, 8 bp gap",activity,[1]; [8],0 % NHEJ
same,activity,[2]; [8],0 % NHEJ
same,activity,"[3]; ZFN pair, average of 2",6.1 % NHEJ
"mROSA target, 6 bp gap",activity,[4],7.5 % NHEJ
same,activity,[5],22.6 % NHEJ
"rat IgM target, 6 bp gap",activity,[6],1.93 % NHEJ
same,activity,[7],2.43 % NHEJ
